Experimental findings from article PMC2566886 (Nucleic Acids Research, 2008) are described below.

The series concerns the molecule itself. Put plainly: cross-linking.

For orientation: stoichiometry N means a count of units in the complex or per binding partner.

B1: Xenopus Nudt16 protein (X29) (enzyme, Xenopus laevis)
chain: MAESRSPDRGAKEDKPRPRNISREESLQLEGYKHACHALLHAPSQAKLFDRVPIRRVLLMMMRFDGRLGFPGGFVDTRDISLEEGLKRELEEELGPALATVEVTEDDYRSSQVREHPQKCVTHFYIKELKLEEIERIEAEAVNAKDHGLEVMGLIRVPLYTLRDRVGGLPAFLCNNFIGNSKSQLLYALRSLKLLREDQIQEVLKASHRLQY
As to B1, the “stoichiometry N” value is not below 2.
